This passage reports Kd results from publication PMC2931317.

The target in the series is T1, DIP1-c (Disconnected Interacting Protein 1, longest isoform) (Drosophila melanogaster, UniProt C6TP62 1-410).
T1 sequence: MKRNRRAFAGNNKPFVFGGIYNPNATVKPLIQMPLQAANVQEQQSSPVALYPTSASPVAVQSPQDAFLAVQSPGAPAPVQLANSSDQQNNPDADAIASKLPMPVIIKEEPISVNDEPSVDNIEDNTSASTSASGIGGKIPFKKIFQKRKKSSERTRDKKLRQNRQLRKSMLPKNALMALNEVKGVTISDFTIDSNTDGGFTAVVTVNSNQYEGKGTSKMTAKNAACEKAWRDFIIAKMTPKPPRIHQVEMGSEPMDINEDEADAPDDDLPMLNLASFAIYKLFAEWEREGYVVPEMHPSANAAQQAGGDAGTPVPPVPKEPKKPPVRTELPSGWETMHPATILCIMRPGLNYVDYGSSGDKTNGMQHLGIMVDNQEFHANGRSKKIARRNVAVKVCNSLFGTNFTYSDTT
Put plainly: EMSA. (Mobility shift assays separate free from complexed probe on a gel.)

B1: dsDNA40 (dsDNA)
DNA 1: CCGGGCTGCACATGGTTAATGGCCAGTCCACGCGTAGATC
DNA 2: GATCTACGCGTGGACTGGCCATTAACCATGTGCAGCCCGG
For B1, the Kd – broadly, the concentration at which binding is half-saturated – worked out at 26 ± 8 nM.
